Usually Km stands for the substrate concentration at which the rate is half of its maximum.

What all share (assay type): biochemical, human
Data set [1] concerns T1, N=C(N)NCCC[C@H](NC(=O)[C@H](CC1CCCCC1)NC(=O)[C@@H](N)C1CCCCC1)C(=O)Nc1ccc([N+](=O)[O-])cc1.
T1 construct: Human urinary kallikrein (hereinafter "HUK") was highly purified using a modification of published methods; from tissue; host or cells: human urine
As to the kind of experiment: Km and Vmax of tripeptide 4-nitroanilides with HUK. The note with it: other: tripeptide 4-nitroanilide as HUK substrate; pH 9.0; 37.0 °C. From the text: (§1) An evaluation of other possible peptide sequences and their potential effect as substrate analogue inhibitors specifically of tissue kallikrein was undertaken using chromogenic substrates comprising alternate series of tripeptide 4-nitroanilides using previously described methods [Amundsen et al., "Methods For The Determination Of Glandular Kallikrein By Means Of A Chromogenic Tripeptide Substrate," in Kinins-II. Part A. Plenum Press, 1979, pages 83-95]. This methodology relies on the capacity of HUK to cleave p-nitroaniline from specifically synthesized tripeptide 4-nitroanilines. Controls for this experimental series included S-2266 comprising D-Val-Leu-Arg-4NA; S-2444 comprising D-Glu-Gly-Arg-4NA; and S-2302 comprising D-Pro-Phe-Arg-4NA respectively. The 50% inhibitory concentration (IC50) values for each synthesized tripeptide 4-nitroanilide was determined at 37 C. at pH 9.0 using the specific kallikrein substrates S-2266 (Kabi, Helena Laboratories, Beaumont, Tex.). 4.0 nanograms (hereinafter "ng") of HUK were used in each sample. Blanks lacking S-2266 were run in parallel to correct for hydrolysis of all samples. In all cases, the amount of 4-nitroaniline generated from each tripeptide was less than 10% of that observed for the hydrolysis of S-2266.
(§2) Subsequently, the Km and Vmax for each test tripeptide 4-nitroanilide was determined using conventional techniques in an HP-8450 diode array spectrophotometer (Hewlett Packard Company) attached to a HP-85 microcomputer. The multicomponent assay program was modified to allow the simultaneous determination of the reaction velocity in four samples.

Data set [2] relates to T2, N=C(N)NCCC[C@H](NC(=O)[C@H](CC1CCCCC1)NC(=O)[C@H](N)c1ccccc1)C(=O)Nc1ccc([N+](=O)[O-])cc1.
T2 construct: Human urinary kallikrein (hereinafter "HUK") was highly purified using a modification of published methods; from tissue; host or cells: human urine
The experiment in a line: Km and Vmax of tripeptide 4-nitroanilides with HUK. Particulars: other: tripeptide 4-nitroanilide as HUK substrate; pH 9.0; 37.0 °C.
Text: as §1, §2

In data set [3] the test system is T3, NCCCC[C@H](NC(=O)[C@H](CC1CCCCC1)NC(=O)[C@H](N)c1ccccc1)C(=O)Nc1ccc([N+](=O)[O-])cc1.
T3 construct: Human urinary kallikrein (hereinafter "HUK") was highly purified using a modification of published methods; from tissue; host or cells: human urine
As to the kind of experiment: Km and Vmax of tripeptide 4-nitroanilides with HUK. The note with it: other: tripeptide 4-nitroanilide as HUK substrate; pH 9.0; 37.0 °C.
Text: as §1, §2

The subject of data set [4] is T4, NCCCC[C@H](NC(=O)[C@H](CC1CCCCC1)NC(=O)[C@H](N)C1CCCCC1)C(=O)Nc1ccc([N+](=O)[O-])cc1.
T4 construct: Human urinary kallikrein (hereinafter "HUK") was highly purified using a modification of published methods; from tissue; host or cells: human urine
As to the kind of experiment: Km and Vmax of tripeptide 4-nitroanilides with HUK. The note with it: other: tripeptide 4-nitroanilide as HUK substrate; pH 9.0; 37.0 °C.
Text: as §1, §2

Data set [5] relates to T5, CC[C@H](C)[C@H](N)C(=O)N[C@@H](CC1CCCCC1)C(=O)N[C@@H](CCCNC(=N)N)C(=O)Nc1ccc([N+](=O)[O-])cc1.
T5 construct: Human urinary kallikrein (hereinafter "HUK") was highly purified using a modification of published methods; from tissue; host or cells: human urine
The experiment in a line: Km and Vmax of tripeptide 4-nitroanilides with HUK. The note with it: other: tripeptide 4-nitroanilide as HUK substrate; pH 9.0; 37.0 °C.
Text: as §1, §2

Data set [6] relates to T6, N=C(N)NCCC[C@H](NC(=O)[C@H](Cc1ccccc1)NC(=O)[C@H](N)C1CCCCC1)C(=O)Nc1ccc([N+](=O)[O-])cc1.
T6 construct: Human urinary kallikrein (hereinafter "HUK") was highly purified using a modification of published methods; from tissue; host or cells: human urine
The experiment in a line: Km and Vmax of tripeptide 4-nitroanilides with HUK. The note with it: other: tripeptide 4-nitroanilide as HUK substrate; pH 9.0; 37.0 °C.
Text: as §1, §2

In data set [7] the test system is T7, CC(=O)N[C@@H](CO)C(=O)N1CCC[C@H]1C(=O)N[C@@H](Cc1ccccc1)C(=O)N[C@@H](CCCNC(=N)N)C(=O)N[C@@H](CO)C(=O)N[C@H](C(=O)N[C@@H](CCC(N)=O)C(N)=O)C(C)C.
T7 construct: Human urinary kallikrein (hereinafter "HUK") was highly purified using a modification of published methods; from tissue; host or cells: human urine
The experiment in a line: KM determination: hydrolysis of substrate analogues by HUK (HPLC, scintillation counting). Particulars: other: hydrolysis by HUK, pH 9.0, 37 C, thirty minutes. Here is the method:
(§3) Human urinary kallikrein (hereinafter "HUK") was highly purified using a modification of published methods that employ ultrafiltration, aprotinin-CH-sepharose affinity chromatography, and Sephadex G-100 gel filtration [ole-MoiYoi et al., Proc. Natl. Acad. Sci. USA 76: 3121-3125 (1979)]. […] The pH of each fraction was determined immediately upon elution, and the fraction was neutralized by addition of 2.0 ml of 2M Tris-HCL buffer (pH 8.0).
(§4) KM Determination: Hydrolysis of the substrate analogue inhibitors by HUK was measured by combining the test inhibitor at different concentrations on either side of the KM value with the enzyme at pH 9.0 for thirty minutes at 37 C. The cleavage products were separated from the starting material in the digest by HPLC on a Beckman octadecylsilane (ODS) column (1×25 cm) using a thirty minute gradient of from 0-70% CH3 CN in triethylammonium phosphate buffer (pH 7.0). The starting materials and reaction products were completely resolved under these conditions. Absorbance of the HPLC effluent was monitored at 220 nm. Individual fractions were collected and the amount of peptide degradation products was quantitated by counting in a liquid scintillation counter. Samples containing individual inhibitors were incubated without HUK and solvent blanks were also chromatographed and analyzed in the same way.
(§5) For test purposes, in these HUA cleavage studies, individual peptide sequences were synthesized, purified, and characterized as previously described herein. For these cleavage studies, doubly labelled peptides were prepared using [^3 H]-valine and […] respectively. In addition, 6.0N HCL-dioxane was used for removal of tert-butoxycarbonyl protecting groups and 90% hydrogen fluoride/10% anisole (volume/volume) for global deprotection on completion of the synthesis. After extraction and gel filtration on Sephadex G-15, final purification was completed by isocratic elution from a synchrom RP-P column (2.1×25 cm) with CH3 CN--H2 O (8 ml/min). The resultant peptides were deemed to be homogeneous by amino acid analysis; high performance liquid chromatography; thin layer chromatography; and A230 /A260 ratio analysis. […]

The test system of data set [8] is T8, CC(=O)N[C@@H](Cc1ccccc1)C(=O)N[C@@H](CCCN=C(N)N)C(=O)N[C@@H](CO)C(=O)N[C@H](C(=O)N[C@@H](CCC(N)=O)C(N)=O)C(C)C.
T8 construct: Human urinary kallikrein (hereinafter "HUK") was highly purified using a modification of published methods; from tissue; host or cells: human urine
The data set is described as above. The note with it: other: hydrolysis by HUK, pH 9.0, 37 C, thirty minutes. Here is the method: as §3, §4, §5

In data set [9] the test system is T9, CC(=O)N1CCC[C@H]1C(=O)N[C@@H](Cc1ccccc1)C(=O)N[C@@H](CCCNC(=N)N)C(=O)N[C@@H](CO)C(=O)N[C@H](C(=O)N[C@@H](CCC(N)=O)C(N)=O)C(C)C.
T9 construct: Human urinary kallikrein (hereinafter "HUK") was highly purified using a modification of published methods; from tissue; host or cells: human urine
Described as above. The note with it: other: hydrolysis by HUK, pH 9.0, 37 C, thirty minutes. The method, then: as §3, §4, §5

Regarding Human urinary kallikrein (Homo sapiens), the Km in data set [1] is 12.5 µM; in data set [2], 1.96 µM; in data set [3], 48.1 µM; in [4], 46.6 µM; in data set [5], 1.33 µM; in [6], 0.84 µM. Moreover, the Km in data set [7] was 37.6 µM; in data set [8], 307 µM; in [9] it was 482 µM. Also, the values for the kcat in data set [8] and in [9] were 188 mol/mol/sec and 229 mol/mol/sec, respectively.

These data come from US4835253A, “Specific inhibitors of tissue kallikrein” (The University Hospital, priority 1987, dated 1989).
